Laboratory results published in the RNAGym collection of RNA variant scans (doi:10.1093/molbev/msab373).

B1: Azoarcus group I ribozyme (parent)
chain: GUGCCUUGCGCCGGGAAACCACGCAAGGGAUGGUGUCAAAUUCGGCGAAACCUAAGCGCCCGCCCGGGCGUAUGGCAACGCCGAGCCAAGCUUCGGCGCCUGCGCCGAUGAAGGUGUAGAGACUAGACGGCACCCACCUAAGGCAAACGCUAUGGUGAAGGCAUAGUCCAGGGAGUGGCGAAAGUCACACAAACCGG

Variants of: B1
Assay: reverse-splicing fitness (ratio to wild type); higher = more active; in vitro selection; Mg2+ level not given
Procedure, shortened: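 An in vitro group I ribozyme library with randomized positions was T7-transcribed and gel-purified. In triplicate, 10 pmol RNA in EPPS pH 7.5 was reacted with 50 pmoles of a 30-nt RNA substrate for 1 h at 37 °C across several added MgCl2 levels (1–48 mM), then stopped with EDTA. Products were reverse transcribed from a substrate-complementary primer, PCR-amplified and sequenced (HiSeq 4000). Fitness is a variant's read proportion after selection over that before, normalised to wild type.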

| Variant | reverse-splicing fitness |
| --- | --- |
| C82A A111C A145U C150G C169G U176A | 0.00679 |
| C82A A111C A145U C150G C169G U176G | 0.00861 |
| C82A A111C A145U C150U C169U U176C | 0.0144 |
| C82A A111C A145U C150U C169U U176G | 0.00857 |
| C82A A111C A145U C150U C169U U176A | 0.0172 |
| C82A A111C A145C C150A C169U | 0.00921 |
| C82A A111C A145C C150A C169A | 0.00835 |
| C82A A111C A145C C150A C169G | 0.0093 |
| C82A A111C C169A U176G | 0.00874 |
| C82A A111C C169A U176A | 0.0171 |
| C82A A111C C169A U176C | 0.0237 |
| C82A A111C A145G C150A C169U | 0.0111 |
| C82A A111C A145G C150A C169G | 0.00824 |
| C82A A111C A145G C150A C169A | 0.011 |
| C82A A111C C150G C169U | 0.00907 |
| C82A A111C C150G C169G | 0.00723 |
| C82A A111C C150G C169A | 0.00766 |
| C82A A111C C169G | 0.00911 |
| C82A A111C C169A | 0.00822 |
| C82A A111C A145G C150G C169U | 0.00803 |
| C82A A111C A145G C150G C169G | 0.00662 |

| Variant | reverse-splicing fitness |
| --- | --- |
| C82A A111C A145G C150G C169A | 0.00852 |
| C82A A111C A145G C169G U176G | 0.00836 |
| C82A A111C A145G C169G U176C | 0.0335 |
| C82A A111C A145G C169G U176A | 0.0221 |
| C82A A111C C150G C169A U176A | 0.00958 |
| C82A A111C C150G C169A U176C | 0.0102 |
| C82A A111C C150G C169A U176G | 0.00698 |
| C82A A111C A145G C150G C169U U176G | 0.00666 |
| C82A A111C A145G C150G C169U U176A | 0.0112 |
| C82A A111C A145G C150G C169U U176C | 0.0116 |
| C82A A111C A145C C150G U176G | 0.00408 |
| C82A A111C A145C C150G U176A | 0.00906 |
| C82A A111C A145C C150G U176C | 0.016 |
| C82A A111C A145G C169A | 0.0103 |
| C82A A111C A145G C169U | 0.0142 |
| C82A A111C A145G C169G | 0.00878 |
| C82A A111C A145G C150G U176A | 0.00936 |
| C82A A111C A145G C150G U176C | 0.0173 |
| C82A A111C A145G C150G U176G | 0.00607 |
| C82A A111C C150A U176A | 0.0165 |
| C82A A111C C150A U176C | 0.0285 |

| Variant | reverse-splicing fitness |
| --- | --- |
| C82A A111C C150A U176G | 0.0104 |
| C82A A111C A145C C150G C169A U176A | 0.00837 |
| C82A A111C A145C C150G C169A U176G | 0.00742 |
| C82A A111C A145C C150G C169A U176C | 0.00911 |
| C82A A111C C150U U176C | 0.0554 |
| C82A A111C C150U U176G | 0.0134 |
| C82A A111C C150U U176A | 0.036 |
| C82A A111C A145C C150A U176A | 0.0105 |
| C82A A111C A145C C150A U176G | 0.00856 |
| C82A A111C A145C C150A U176C | 0.0176 |
| C82A A111C A120U A145U U176C | 0.0103 |
| C82A A111C A120U A145U U176G | 0.00339 |
| C82A A111C A120U A145U U176A | 0.00697 |
| C82A A111C A145C C150U C169G U176A | 0.0253 |
| C82A A111C A145C C150U C169G U176G | 0.00845 |
| C82A A111C A145C C150U C169G U176C | 0.0195 |
| C82A A111C A120U C150G | 0.00737 |
| C82A A111C A120U C150A | 0.00696 |
| C82A A111C A120U C150U | 0.0167 |
| C82A A111C A145G C150G C169A U176G | 0.00877 |
| C82A A111C A145G C150G C169A U176A | 0.0119 |

| Variant | reverse-splicing fitness |
| --- | --- |
| C82A A111C A145G C150G C169A U176C | 0.0134 |
| C82A A111C A120U A145U C150U C169U U176G | 0.00288 |
| C82A A111C A120U A145U C150U C169U U176C | 0.00348 |
| C82A A111C A120U A145U C150U C169U U176A | 0.00402 |
| C82A A111C A145G C150A C169A U176A | 0.0172 |
| C82A A111C A145G C150A C169A U176G | 0.0091 |
| C82A A111C A145G C150A C169A U176C | 0.0191 |
| C82A A111C A145C C150U U176C | 0.0355 |
| C82A A111C A145C C150U U176G | 0.00993 |
| C82A A111C A145C C150U U176A | 0.0236 |
| C82A A111C C150G C169U U176G | 0.00629 |
| C82A A111C C150G C169U U176C | 0.0137 |
| C82A A111C C150G C169U U176A | 0.0073 |
| C82A A111C A120U C169U U176C | 0.00626 |
| C82A A111C A120U C169U U176A | 0.00613 |
| C82A A111C A120U C169U U176G | 0.00199 |
| C82A A111C A145C C150U C169U U176C | 0.0108 |
| C82A A111C A145C C150U C169U U176G | 0.00776 |
| C82A A111C A145C C150U C169U U176A | 0.0133 |
| C82A A111C A145U C169U U176C | 0.0144 |
| C82A A111C A145U C169U U176A | 0.0149 |
